The results in this text go back to patent US20070031418A1 (published 2007).

The target of assay [1] is trkC receptor of embryonic rat trigeminal neurons (rat) (UniProt Q03351). Kind of assay: cell-based or functional assay.
The target of assay [2] is trkC receptor in stable trkC expressing CHO cells. Kind of assay: cell-based or functional assay.
The target of a further assay is T1, human trkC (human, UniProt Q16288 32-429, limits assumed).
T1 construct: also called htrkC
Kind of assay: BIAcore analysis (SPR); format not stated.

trkC receptor of embryonic rat trigeminal neurons (rat), sequence (Q03351 32-864): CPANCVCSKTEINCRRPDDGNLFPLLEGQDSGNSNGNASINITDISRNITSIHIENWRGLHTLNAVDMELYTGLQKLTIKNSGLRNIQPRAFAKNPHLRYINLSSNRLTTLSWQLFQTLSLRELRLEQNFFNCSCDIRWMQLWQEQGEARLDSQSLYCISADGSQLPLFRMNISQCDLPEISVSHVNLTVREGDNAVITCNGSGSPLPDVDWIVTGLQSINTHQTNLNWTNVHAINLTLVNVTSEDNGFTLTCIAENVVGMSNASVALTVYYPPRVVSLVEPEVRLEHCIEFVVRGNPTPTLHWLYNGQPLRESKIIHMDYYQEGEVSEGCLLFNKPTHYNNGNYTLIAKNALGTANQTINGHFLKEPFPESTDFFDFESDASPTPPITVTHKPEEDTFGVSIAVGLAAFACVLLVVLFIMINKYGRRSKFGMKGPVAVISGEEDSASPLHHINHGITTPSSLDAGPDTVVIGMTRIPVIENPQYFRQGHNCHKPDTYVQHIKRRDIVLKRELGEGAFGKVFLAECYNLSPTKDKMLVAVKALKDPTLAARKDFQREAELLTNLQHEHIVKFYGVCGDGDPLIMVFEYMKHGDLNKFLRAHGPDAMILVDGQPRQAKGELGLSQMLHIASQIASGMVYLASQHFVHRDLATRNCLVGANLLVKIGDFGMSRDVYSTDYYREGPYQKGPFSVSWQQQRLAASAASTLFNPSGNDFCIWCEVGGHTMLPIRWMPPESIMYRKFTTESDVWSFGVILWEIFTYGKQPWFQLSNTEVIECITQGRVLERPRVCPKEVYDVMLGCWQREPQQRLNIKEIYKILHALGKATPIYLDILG

In the case of NT3 (ligand), the survival of embryonic rat trigeminal neuron cultures, EC50 in assay [1] came to 0.00073 nM. Moreover, the trkC tyrosine phosphorylation, half maximum effective concentration (EC50) in assay [2] was found to be 1.09 nM.

B1: humanized anti-trkC agonist antibody A5 (antibody, V domains shown)
VH: QVQLVQSGAEVKKPGASVKVSCKASGYTFTSYRIHWVRQAPGQGLEWMGEIYPSNARTNYNEKFKSRVTMTRDTSTSTVYMELSSLRSEDTAVYYCARKYYYGNTRRSWYFDVWGQGTTVTVS
VL: DIQMTQSPSSLSASVGDRVTITCRASESIDNYGISFLAWYQQKPGKAPKLLIYAASNRGSGVPSRFSGSGSGTDFTFTISSLQPEDIATYYCQQSKTVPRTFGQGTKLEIKR
As to B1, the Kd with human trkC is about 0.28 nM.
